PMC4893494, “Identification and Characterization of Five BAHD Acyltransferases Involved in Hydroxycinnamoyl Ester Metabolism in Chicory” (Frontiers in Plant Science, 2016)

System: O=C(O)C1=C[C@@H](O)[C@@H](O)[C@H](O)C1
Assay: HPLC-UV of product, Michaelis-Menten
Assay type: biochemical, Cichorium intybus
Settings: acyl acceptor varied, saturating p-coumaroyl-CoA (800 μM), 50 mM phosphate pH 7.1, room temperature
From the text: HPLC-UV of product, Michaelis-Menten on HCT2 (CiHCT2)

## HCT2 (CiHCT2) (Cichorium intybus)
  Km: 802 ± 63 µM
  Vmax: 18.2 µmol/min/mg
  Vmax/Km: 22800 µL/min/mg
